Data set [1] is classed as cell-based, P. pastoris. The procedure: (§1) Precultures of P. pastoris transformants were prepared in buffered complex glycerol media (BMGY). BMGY contained: 10 g/l yeast extract, 20 g/l peptone, 3.4 g/l yeast nitrogen base, 10 g/l ammonium sulfate, 100 mM potassium phosphate (pH 6), 0.4 mg/l biotin and 1% (v/v) glycerol. Erlenmeyer flasks (500 ml) containing 50 ml BMGY media were inoculated with single colonies of 24 h old YPD-agar cultures of P. pastoris KM71 mut^s3/CYP505E3 and incubated at 30° C. and 225 rpm for 24 h. The cultures were harvested using pre-weighed centrifuge tubes at 3000 g for 5 min and stored on ice until further use.
(§2) The main cultures for expression were prepared in buffered complex methanol media (BMMY) containing 10 g/l yeast extract, 20 g/l peptone, 3.4 g/l yeast nitrogen base, 10 g/l ammonium sulfate, 100 mM potassium phosphate (pH 6), 0.4 mg/l biotin and 0.5 or 1% (v/v) methanol. Harvested cells from precultures were resuspended in BMMY media to final concentration of 1 g WC per 40 ml (appx. 25 g/l). The resuspended cultures (100 ml) were transferred to 500 ml Erlenmeyer flasks and incubated at 25° C. and 225 rpm for 24 h. The cultures were then harvested at 3000 g for 5 min using pre-weighed centrifuge tubes.
(§3) Different transformants of Pichia pastoris KM71 harbouring the CYP505 genes for SEQ ID Nos 1 to 7 and 9 to 12 were grown and harvested as described above. The harvested cells were resuspended to give 1 g wet cell weight in 40 ml MOPS buffer (200 mM, 100 mM glucose, 100 mM glycerol, pH 8) and 1 ml aliquots of these cell suspensions were transferred to 40 ml amber vials. Dodecane, 1-dodecanol and 1-tetradecanol were added neat to these cell suspensions to give final concentrations of 200 mM in the case of the alcohols and 1 M in the case of dodecane while in the case of dodecanoic acid 20 μl of a 500 mM stock solution (in DMSO) was added to give a final concentration of 10 mM. Transformants harbouring the CYP505 genes for SEQ ID Nos 1 to 4 were tested for the biotransformation of 1-dodecanol, 1-tetradecanol, dodecanoic acid, tetradecanoic acid and dodecane, while those harbouring the CYP505 genes for SEQ ID Nos 5 to 7 and 9 to 12 were only tested for the biotransformation of 1-dodecanol and dodecanoic acid. The biotransformations were incubated at 25° C. and 225 rpm for 24 h. Extractions were performed using ethyl acetate (500 μl×2). The extracts were analyzed using GC/MS.

Data set [2] is described as follows: Whole cell biotransformation of dodecane by CYP505s expressed in P. pastoris. In kind it is cell-based. The following applies: whole cells of P. pastoris; for products produced from dodecane (GC-MS): 1 M dodecane, 24 h; for ω-7 hydroxylase activity C12alk: C12 alkane, GC-MS peak height. The method, then:
as §1, §2, §3

B1: CYP505E1: CYP505 cytochrome P450 monooxygenase from Aspergillus niger, SEQ ID No 3 (protein, listed as Aspergillus kawachii)
chain: MKDAERIPGPKPLPVVGNLFDIDPEHSLESIVAFAEKFGPLFQITINGEKQIFATSQALVDELCDELRFHKAVVTGLEILRLLAHDGLFTAYHGERGWGIAHRILVPAFGPLRIRNMLDDMSDVAQQLCLKWARQGGSTSINITEDFTRLTLDTIALCTMGFRLNSFYNNETMHPFVQSMLYVLREADIQANLPGIANSIRVSAQRRMHKNIEAMRTMARGIIQERRKNKNPVDDILNTLLNGRDPVTGEGMSDDSIIDNVITFLIAGHETTSGLLSFTFYFLIQHPHILKKAQEEVDETVGLAQISAQHLAELPYIDAILKESLRLMPTAPGFTVTPKKTEVLGGRWMINAGQPVNVLLPACLRDQSVFGPDADEFRPERMLAENFSKLPPNSWKPFGNGERGCIGRAFAWQEAQLVVAMILQTFDLVPDDPSYQLRIKETLTIKPDGFRIRATLRRGQTATGLSRRSMLVARDGSSEESSNHPAEARGDHAPARGQPVSFFYGSNSGTCKALAHQLASNMMSRGYTTQKLAPLDNAVDNLPRDQPVIILTTTYDGQPTDNAKKFVAWLETGNVLSLQGISYAVFGCGHHDWTQTFYRIPILIDDLMYKAGATRLAPRGAANAAVSDLFSDLEAWEETSLLPALRENFLPSNSTDFDPLNPHQIQLSLSKPRRVDLHKGLIEAKVTAVRVLTSPDTPEKRHLEFCFQGDLSLRPGDHLNILPVNPPSTVSRVLAQFNLAPDYNITVNSFNTLGLPQATPVSASELFSSYVELCQPATRNNLKSLIAATQSDTVKQELNRLYDSYEFIVRDKRVSVLDLLEQFPSISLPIAAFISMLPALRVRTYSLSMAPAFKPSHSSLTFSVINEPAWRGSGQHLGVASNYLASLTSGSIFYFSPRPAKETFHLPKDPSRTPIIMICAGSGLAPFLSFIQDRMVLKQQNKPLAKAFLFFGCRGRSLDDLYHEELSEYEAAGVVEVRRAYSKTPEFDIAKGCRYVQHRLVTEGQAILSLWAQNAIIYVCGSTSMAKGAEAVLQNMLGPLPKERYVTEIF
With B1, in data set [1], the “products produced from tetradecanoic acid (GC-MS)” value is “only 7-hydroxy tetradecanoic acid” and the “ω-7 hydroxylase activity C14o” value was “−”. Besides, in data set [2], the “products produced from dodecane (GC-MS)” value is on record as 5-dodecanol and the “ω-7 hydroxylase activity C12alk” value is listed as “+ (+ − 0.01 million < RA < 0.1 million)”.

B2: CYP505Ak: CYP505 cytochrome P450 monooxygenase from Aspergillus kawachii, SEQ ID No 2 (protein)
chain: MRDAERIPGPTPLPVVGNLFDIDLEHVLQSVIGLANKYGPLFQITINGEKQIFATSQALVDELCDESRFHKAVASGLENLRMLAHDGLFTAYHGERGWGIAHRILVPAFGPLRIQSMFDDMGDLAQQLCLKWARQGASNSINITDDFTRLTLDTIALCTMDFRLNSFYNNDTMHPFVESMLYVLREADVQSALPGIANSVRIMAHRRMLKNIEAMRTIARDIIHDRRKKENPADDLLNTLLNGRDPVTGEGMSDESIIDNVITFLVAGHETTSGLLSFTFYYLVQHPDILKKAQKEVDETVGQAQISVQHLAELPYIDAILKESLRMMPTAPGFTVTPKKAETLGGKWLLNAGQPINVLLPACLRDRSIFGPNADEFSPGRMLAENFSKLPPNSWKPFGNGERSCIGRAFAWQEAQLVVAMILQNFDLVPDDPSYTLRIKETLTIKPDGFRVRATLRHRQTATGLFQHTLSARNDTSLASSSAHFIKKSEDQAPAGGRPICFFYGSNSGTCKALAHRLASDLMPYGFTDQKLAVLDTAVDNLPRDQPVIILTTTYDGQPTDDAKKFVAWLESGKVPALQGISYAVFGCGHHDWTQTFYRIPTLIDELMHKAGATRLAPRGTANAAVSDLFSDLEAWEETSLLPALRETFLLSSSSDLEPLNLHQLQISLSKPRRIDLHKDLMEARVTTVRILTNPDTPEKRHIEFRFQGDTTLRPGDHVNVLPVNPPSTVLRVLAQFNLAPDYSITINSFNTLGLPQATPVSASELFSAYVELSQPATRNNLRILAATAQSDEDKQELIHLQDSYDSLVRDKRVSVLDLLEQFPSVSLPIAAFISMLPALRLRTYSLSLAPSFKPSHGSLTFSVVNEPARNGNRRYLGVGSNYLASLTPGSILYLSPRPAKEAFHLPVDQSRIPIIMICAGSGLAPFLSFIQDRMIWQQQDKPLARALLFFGCGGRFLDDLYHEELSEFEAAGVVDVRRAYSKVLDYDMARGCKYVQDRLVAEANAIRHLWAQDATIYVCGSADMAKGVEGVLEKLLGMLPRERYVTEIYQMQTRDNVSEWLI
modifications: Aspergillus niger
Turning to B2, the “products produced from tetradecanoic acid (GC-MS)” value in data set [1] is listed as “only 7-hydroxy tetradecanoic acid”. In addition, in data set [2], the “products produced from dodecane (GC-MS)” value is 5-dodecanol and the “ω-7 hydroxylase activity C12alk” value is listed as “++ (++ 0.1 million < RA < 1 million)”.

B3: CYP505Pe: CYP505 cytochrome P450 monooxygenase from Penicillium expansum, SEQ ID No 4 (protein, listed as Penicillium expansum)
chain: MKDMESIPGPKPLPVVGNLFDIDLENGLQSIIKMAHEFGPLFQITINGQKQIFATSQALVDELCDETRFHKAVMGGIQKLRMLAKDGLFTAYHGERGWGIAHRILMPAFGPLRIRDMFEDMSDVAQQLCFKWARQGSSTSINICDDFTRLTLDTIALCTMGFRLNSYYNSNALHPFIESMLYVLKEAELQSTLPGVANCMRVKAQRRMSKHIDAMRSMARNLIEERRAKPEPVDDLLNTLLNGRDPITGEGMSDDLIISNIITFLIAGHETTSGLLSFTFYYLLQNQDVLERARNEVDEVTGVGPITVQHLAKLPYIDAIMKESLRLMPTAPAFTVTPQKPEVLGGKWMINTGDSVNLLLPVCLRDETVFGPDAGEFRPNRMLEENFSKLPPNSWKPFGNGERGCIGRAFAWQEAQLVVALVLRTFDLAAEDPYYKLRIKETLTIKPDGFRIRATLRHGKSATALSQNNISVGAAASPASSTYLAGNENGRDAAGGQPVSFFYGSNSGTCKALTHRLASTMMTRGFTDQNIAPLDSAVDNLPRDQPTIIITTTYDGQPTDDAKKFVAWLESGNSPSLQGVSYAVFGCGHQDWTKTFYRIPILIDALMYKAGATRLATRGAANAAISDLFSDLEVWEETNLLPGLRESFNPPNNSNFVPLEPHQLQISINKPTRVGMHRDLIEAKVTAIRTLTSPGAPEKRHLEFCIPGETTLRPGDHLNILPVNPPSTVSRALARFNLAPDHSITFESSNALDLPQATPVSAAELFSSYLELSQPATRNNLKELASTTPSDGEKQELLHLYDSYDSLIRAKRASVLDLLEQFTSVTLPITTFISMLPALRVRTYSLSMAPSFKPLHYSLTFSVINEPAWNGNGRYLGVASNYLASLNLGSILYISPRPAKDAFHLPTDQSSKPIIMICAGSGLAPFRSFIQDRMLWQQQDKTLAKALLFFGCRSPQLDDLYHDELSQFEAAGVVEVRRAYSKVPNHYLAKGCRYVQHRLLTETETIQDMWAQDAIIYVCGSGNLAKGVKAVLESMLGTLSERYITEIF
For the molecule B3, in data set [1], the “products produced from tetradecanoic acid (GC-MS)” value is recorded as “only 7-hydroxy tetradecanoic acid” and the “ω-7 hydroxylase activity C14o” value is on record as “−”. Also, in data set [2], the “products produced from dodecane (GC-MS)” value is 5-dodecanol and the “ω-7 hydroxylase activity C12alk” value was “++ (++ 0.1 million < RA < 1 million)”.

For the origin of these results see patent publication US10975360B2, “Process for the modification of alkanes, fatty acids and fatty alcohols” (priority 2016, dated 2021).
